The target of test [1] is T1, human CD3 (human, UniProt P07766 23-126; P04234 22-105).
T1 construct: also called His-tagged human CD3; human CD3 (Acro CDD-H52W1)
Put plainly: BLI (Octet), binder on AHC sensor, His-tagged human CD3 (series from 200 nM or single 100 nM), 1:1 fit.

For the next test, the target named is T2, human PD-L1 (human, UniProt Q9NZQ7 19-238).
T2 construct: Soluble antigen in Octet; bought; also called human PD-L1 (Acro PD1-H5229)
Put plainly: BLI (Octet), binder on AHC sensor; antigen conditions not stated. (BLI is a label-free optical method that tracks binding on a fibre tip over time.)

A further test deals with T3, CD19 (UniProt P15391 20-291, limits assumed).
T3 sequence (looked up): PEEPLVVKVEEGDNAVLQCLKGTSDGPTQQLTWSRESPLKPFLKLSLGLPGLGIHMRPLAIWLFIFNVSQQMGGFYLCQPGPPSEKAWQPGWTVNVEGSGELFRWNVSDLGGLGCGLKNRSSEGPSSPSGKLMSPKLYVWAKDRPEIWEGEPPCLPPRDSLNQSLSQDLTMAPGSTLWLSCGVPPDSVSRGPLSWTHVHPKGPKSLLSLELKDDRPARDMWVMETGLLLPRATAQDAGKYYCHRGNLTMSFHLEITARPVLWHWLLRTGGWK
The description is as above.

Another test deals with T4, human 4-1BB (human, UniProt Q07011 24-186, limits assumed).
T4 construct: Soluble antigen in Octet; construct not described
Described as above.

A further test concerns the target T5, human HER3 (human, UniProt P21860 20-643).
T5 construct: Soluble antigen in Octet; bought; also called human HER3 (Acro ER3-H5223)
As to the kind of experiment: BLI (Octet), binder on AHC sensor, 200 nM human HER3, 1:1 fit.

For test [2], the target named is T1, human CD3. Put plainly: BLI (Octet), binder on AHC sensor, 100 nM human CD3, 1:1 fit.

The Kd is the constant that tells how readily two partners part at equilibrium. Higher therefore signals a looser complex.

B1: SI-68P17 (other)
chain 1: DVVMTQSPSTLSASVGDRVTINCQASESISSWLAWYQQKPGKAPKLLIYEASKLASGVPSRFSGSGSGTEFTLTISSLQPDDFATYYCQGYFYFISRTYVNSFGGGTKVEIKGGGGSGGGGSGGGGSGGGGSEVQLVESGGGLVQPGGSLRLSCAASGFTISTNAMSWVRQAPGKGLEWIGVITGRDITYYASWAKGRFTISRDNSKNTLYLQMNSLRAEDTAVYYCARDGGSSAITSNNIWGQGTLVTVSSGGGGSGGGGSQVQLQQSGPGLVKPSETLSITCTVSGFSLTNYGVHWIRQAPGKGLEWLGVIWSGGNTDYNTPFTSRFTITKDNSKNQVYFKLRSVRADDTAIYYCARALTYYDYEFAYWGQGTLVTVSSASTKGPSVFPLAPSSKSTSGGTAALGCLVKDYFPEPVTVSWNSGALTSGVHTFPAVLQSSGLYSLSSVVTVPSSSLGTQTYICNVNHKPSNTKVDKRVEPKSCDKTHTCPPCPAPEAAGGPSVFLFPPKPKDTLMISRTPEVTCVVVDVSHEDPEVKFNWYVDGVEVHNAKTKPREEQYNSTYRVVSVLTVLHQDWLNGKEYKCAVSNKALPAPIEKTISKAKGQPREPQVYTLPPSRDELTKNQVSLSCAVKGFYPSDIAVEWESNGQPENNYKTTPPVLDSDGSFFLVSKLTVDKSRWQQGNVFSCSVMHEALHNHYTQKSLSLSPGGGGGSGGGGSDVVMTQSPSSVSASVGDRVTITCQASQNIRTYLSWYQQKPGKAPKLLIYAAANLASGVPSRFSGSGSGTDFTLTISDLEPGDAATYYCQSTYLGTDYVGGAFGGGTKLTVLGGGGSGGGGSGGGGSGGGGSEVQLVESGGGLVQPGGSLRLSCTASGFTISSYHMQWVRQAPGKGLEYIGTISSGGNVYYASSARGRFTISRPSSKNTVDLQMNSLRAEDTAVYYCARDSGYSDPMWGQGTLVTVSS
chain 2: ENVLTQSPASLSASPGERVTITCSASSSVSYMHWYQQKPGQAPKLWIYDTSKLASGVPSRFSGSGSGNDHTLTISSMEPEDFATYYCFQGSVYPFTFGQGTKVTVLGGGGSGGGGSGGGGSGGGGSQVTLKESGPGLVQPGQTLSLTCAFSGFSLSTSGMGVGWIRQPPGKGLEWLAHIWWDDDKRYNPALKSRLTISKDTSKNQVYLQMNSLDAEDTAVYYCARMELWSYYFDYWGQGTLVTVSSGGGGSGGGGSEIVLTQSPSTLSVSPGERATFSCRASQSIGTNIHWYQQKPGKPPRLLIKYASESISGIPDRFSGSGSGTEFTLTISSVQSEDFAVYYCQQNNNWPTTFGPGTKLTVLRTVAAPSVFIFPPSDEQLKSGTASVVCLLNNFYPREAKVQWKVDNALQSGNSQESVTEQDSKDSTYSLSSTLTLSKADYEKHKVYACEVTHQGLSSPVTKSFNRGECGGDKTHTCPPCPAPEAAGGPSVFLFPPKPKDTLMISRTPEVTCVVVDVSHEDPEVKFNWYVDGVEVHNAKTKPREEQYNSTYRVVSVLTVLHQDWLNGKEYKCAVSNKALPAPIEKTISKAKGQPREPQVYTLPPSRDELTKNQVSLWCLVKGFYPSDIAVEWESNGQPENNYKTTPPVLDSDGSFFLYSKLTVDKSRWQQGNVFSCSVMHEALHNRFTQKSLSLSPGGGGGSGGGGSDIQMTQSPSTLSASVGDRVTITCQASQSISSHLNWYQQKPGKAPKLLIYKASTLASGVPSRFSGSGSGTEFTLTISSLQPDDFATYYCQQGYSWGNVDNVFGGGTKVTVLGGGGSGGGGSGGGGSGGGGSEVQLLESGGGLVQPGGSLSLSCAASGFSFSSGYDMCWVRQAPGKGLEWIACIAAGSAGITYDANWAKGRFTISRDNSKNTLYLQMNSLRAEDTAVYYCARSAFSFDYAMDLWGQGTLVTVSS
notes: penta-miniGNC; D1 αCD3, D2 αCD19, D3 αEGFR (Fab), D4 α4-1BB, D5 αPD-L1
For the molecule B1, the Kd with human CD3 [1] is 15.8 nM; with human PD-L1 it was 2.72 nM; in the test with CD19, 5.05 nM; with human 4-1BB, 26.8 nM.

B2: SI-68P19 (other)
chain 1: DVVMTQSPSSLSASVGDRVTISCQASESISSWLAWYQQKPGQAPKLLIYEASKLASGVPSRFSGSGSGTEFTLTISSLEPEDFATYYCQGYFYFISRTYVNSFGGGTKVEIKGGGGSGGGGSGGGGSGGGGSQQLVESGGGLVKPGGSLRLSCAASGFTISTNAMSWVRQAPGKGLEWVGVITGRDITYYASWAKGRFTISKTSKNTVYLQMNSLRAEDTAVYYCARDGGSSAITSNNIWGQGTLVTVSSGGGGSGGGGSQVQLQQSGPGLVKPSETLSITCTVSGFSLTNYGVHWIRQAPGKGLEWLGVIWSGGNTDYNTPFTSRFTITKDNSKNQVYFKLRSVRADDTAIYYCARALTYYDYEFAYWGQGTLVTVSSASTKGPSVFPLAPSSKSTSGGTAALGCLVKDYFPEPVTVSWNSGALTSGVHTFPAVLQSSGLYSLSSVVTVPSSSLGTQTYICNVNHKPSNTKVDKRVEPKSCDKTHTCPPCPAPEAAGGPSVFLFPPKPKDTLMISRTPEVTCVVVDVSHEDPEVKFNWYVDGVEVHNAKTKPREEQYNSTYRVVSVLTVLHQDWLNGKEYKCAVSNKALPAPIEKTISKAKGQPREPQVYTLPPSRDELTKNQVSLSCAVKGFYPSDIAVEWESNGQPENNYKTTPPVLDSDGSFFLVSKLTVDKSRWQQGNVFSCSVMHEALHNHYTQKSLSLSPGGGGGSGGGGSDVVMTQSPSSVSASVGDRVTITCQASQNIRTYLSWYQQKPGKAPKLLIYAAANLASGVPSRFSGSGSGTDFTLTISDLEPGDAATYYCQSTYLGTDYVGGAFGGGTKLTVLGGGGSGGGGSGGGGSGGGGSEVQLVESGGGLVQPGGSLRLSCTASGFTISSYHMQWVRQAPGKGLEYIGTISSGGNVYYASSARGRFTISRPSSKNTVDLQMNSLRAEDTAVYYCARDSGYSDPMWGQGTLVTVSS
chain 2: B1 chain 2
notes: penta-miniGNC; D1 αCD3**** (humanized framework 3), D2 αCD19, D3 αEGFR (Fab), D4 α4-1BB, D5 αPD-L1
As to B2, the Kd with human CD3 [1] turned out to be 16.7 nM; in the test with human PD-L1, 0.7 nM; with CD19, 3.44 nM; with human 4-1BB, 21.2 nM.

B3: SI-68P18 (other)
chain 1: DVQMTQSPSTLSATVGQRVTINCQASESISSWLAWYQQKPGQPPKLLIYEASKLASGVPSRFSGSGSGTEFTLTISSLQSDDFATYYCQGYFYFISRTYVNSFGGGTRVEIKGGGGSGGGGSGGGGSGGGGSQQLLESGGRLIKPGATLRLTCKTSGFTISTNAMSWVRQPPGKGLEWIGVITGRDITYYASWAKGRFTISKTSINTVFLQMRSLRAEDTAVYYCARDGGSSAITSNNIWGRGTLVTVSSGGGGSGGGGSQVQLQQSGPGLVKPSETLSITCTVSGFSLTNYGVHWIRQAPGKGLEWLGVIWSGGNTDYNTPFTSRFTITKDNSKNQVYFKLRSVRADDTAIYYCARALTYYDYEFAYWGQGTLVTVSSASTKGPSVFPLAPSSKSTSGGTAALGCLVKDYFPEPVTVSWNSGALTSGVHTFPAVLQSSGLYSLSSVVTVPSSSLGTQTYICNVNHKPSNTKVDKRVEPKSCDKTHTCPPCPAPEAAGGPSVFLFPPKPKDTLMISRTPEVTCVVVDVSHEDPEVKFNWYVDGVEVHNAKTKPREEQYNSTYRVVSVLTVLHQDWLNGKEYKCAVSNKALPAPIEKTISKAKGQPREPQVYTLPPSRDELTKNQVSLSCAVKGFYPSDIAVEWESNGQPENNYKTTPPVLDSDGSFFLVSKLTVDKSRWQQGNVFSCSVMHEALHNHYTQKSLSLSPGGGGGSGGGGSDVVMTQSPSSVSASVGDRVTITCQASQNIRTYLSWYQQKPGKAPKLLIYAAANLASGVPSRFSGSGSGTDFTLTISDLEPGDAATYYCQSTYLGTDYVGGAFGGGTKLTVLGGGGSGGGGSGGGGSGGGGSEVQLVESGGGLVQPGGSLRLSCTASGFTISSYHMQWVRQAPGKGLEYIGTISSGGNVYYASSARGRFTISRPSSKNTVDLQMNSLRAEDTAVYYCARDSGYSDPMWGQGTLVTVSS
chain 2: B1 chain 2
notes: penta-miniGNC; D1 αCD3*** (humanized framework 2), D2 αCD19, D3 αEGFR (Fab), D4 α4-1BB, D5 αPD-L1
On to B3, for which the Kd turned out to be 14.5 nM with human CD3 [1], 1 nM with human PD-L1, 1.35 nM with CD19 and 7.51 nM with human 4-1BB.

B4: SI-75X9 (bispecific antibody, human IgG1, kappa, L234A L235A)
chain 1: QVQLQESGGRLVQPGEPLSLTCKTSGIDLSSNAIGWVRQAPGKGLEWIGVIFGSGNTYYASWAKGRFTISRSTSTVYLKMNSLRSEDTAIYYCARGGYSSDIWGQGTLVTVSSASTKGPSVFPLAPSSKSTSGGTAALGCLVKDYFPEPVTVSWNSGALTSGVHTFPAVLQSSGLYSLSSVVTVPSSSLGTQTYICNVNHKPSNTKVDKRVEPKSCDKTHTCPPCPAPEAAGGPSVFLFPPKPKDTLMISRTPEVTCVVVDVSHEDPEVKFNWYVDGVEVHNAKTKPREEQYNSTYRVVSVLTVLHQDWLNGKEYKCAVSNKALPAPIEKTISKAKGQPREPQVYTLPPSRDELTKNQVSLSCAVKGFYPSDIAVEWESNGQPENNYKTTPPVLDSDGSFFLVSKLTVDKSRWQQGNVFSCSVMHEALHNHYTQKSLSLSPG
chain 2: QVQLVQSGGGLVQAGGSLSLSCAFSGRTFSMYTMGWFRQAPGKEREFVAANRGRGLSPDIADSVNGRFTISRDNAKNTLYLQMDSLKPEDTAVYYCAADLQYGSSWPQRSSAEYDYWGQGTTVTVSSGGGGSGGGGSDPQLTQSPSSLSATVGQRVTINCQSSQSVAKNNNLAWFQQKPGKPPKLLIYSASTLAAGVPSRFSGSGSGTQFTLTITRVQSEDFATYYCSARDSGNIQSFGGGTRVEIKRTVAAPSVFIFPPSDEQLKSGTASVVCLLNNFYPREAKVQWKVDNALQSGNSQESVTEQDSKDSTYSLSSTLTLSKADYEKHKVYACEVTHQGLSSPVTKSFNRGECGGDKTHTCPPCPAPEAAGGPSVFLFPPKPKDTLMISRTPEVTCVVVDVSHEDPEVKFNWYVDGVEVHNAKTKPREEQYNSTYRVVSVLTVLHQDWLNGKEYKCAVSNKALPAPIEKTISKAKGQPREPQVYTLPPSRDELTKNQVSLWCLVKGFYPSDIAVEWESNGQPENNYKTTPPVLDSDGSFFLYSKLTVDKSRWQQGNVFSCSVMHEALHNRFTQKSLSLSPG
notes: bi-miniGNC; D2 αHER3 VHH, D3 αCD3* (Fab)
B4: the Kd with human HER3 was found to be 3.86 nM; with human CD3 [2], 84.2 nM.

(Values after US20230114801A1 (SYSTIMMUNE, published 2023).)
